Test [1] has as its target T1, CD20 on CD19 and CD20-expressing Raji B cells (human, UniProt P11836 1-297).
T1 construct: whole, on cells
T1 sequence (looked up): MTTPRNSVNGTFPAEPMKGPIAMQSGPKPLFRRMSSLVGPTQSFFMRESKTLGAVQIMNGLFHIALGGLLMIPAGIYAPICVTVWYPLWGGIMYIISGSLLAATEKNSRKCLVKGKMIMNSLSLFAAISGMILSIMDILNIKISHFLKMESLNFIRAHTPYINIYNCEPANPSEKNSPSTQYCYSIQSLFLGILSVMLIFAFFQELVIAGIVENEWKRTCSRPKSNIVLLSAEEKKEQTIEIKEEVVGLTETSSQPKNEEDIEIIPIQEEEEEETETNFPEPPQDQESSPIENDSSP
Put plainly: FACS, Raji cells. On the technique in general: A flow cytometer gives signals particle by particle.

The target in test [2] is T2, CD3 on CD3-expressing T cells (Jurkat, HPB-ALL) (UniProt P07766 23-207).
T2 construct: whole, on cells; A multi-chain complex on cells; also called CD3 complex
Put plainly: FACS, Jurkat cells.

Test [3] has as its target T3, CD19 on CD19-expressing Raji B cells (human, UniProt P15391 20-556).
T3 construct: whole, on cells
T3 sequence (looked up): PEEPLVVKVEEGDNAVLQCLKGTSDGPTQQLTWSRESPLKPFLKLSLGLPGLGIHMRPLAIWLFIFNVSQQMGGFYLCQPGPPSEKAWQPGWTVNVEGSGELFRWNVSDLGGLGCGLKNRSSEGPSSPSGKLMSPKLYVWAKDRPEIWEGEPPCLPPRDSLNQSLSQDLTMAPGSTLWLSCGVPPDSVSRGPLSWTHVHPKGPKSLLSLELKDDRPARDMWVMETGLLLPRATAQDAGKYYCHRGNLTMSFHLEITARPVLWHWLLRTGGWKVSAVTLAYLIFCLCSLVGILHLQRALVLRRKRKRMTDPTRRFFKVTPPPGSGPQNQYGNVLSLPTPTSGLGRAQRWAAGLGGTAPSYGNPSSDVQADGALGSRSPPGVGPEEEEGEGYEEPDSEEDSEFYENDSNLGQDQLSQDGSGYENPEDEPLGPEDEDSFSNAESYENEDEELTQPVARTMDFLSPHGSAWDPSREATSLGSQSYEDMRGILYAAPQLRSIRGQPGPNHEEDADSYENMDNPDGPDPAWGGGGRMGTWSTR
The test is described as follows: FACS, Raji cells.

Numbering of substitutions follows the chain as printed.

B1: v5850, hybrid: aCD3-BiTEx_I2C_scFvFc (VHVL) chain A / aCD20-Ofatumumab_Fab chain B and light chain (bispecific antibody)
chain 1: not shown
chain 2: not shown
chain 3: not shown
For the molecule B1, in test [1], the “Bmax (OD450)” value came out at 4.24 OD450 and the Kd was determined as 3.6 nM.

B2: v6325, hybrid: aCD3-Teplizumab-hOKT3_Fab chain A and light chain / aCD20-Ofatumumab_scFvFc (VHVL) chain B (bispecific antibody, human IgG1, kappa)
chain 1: QVQLVQSGGGVVQPGRSLRLSCKASGYTFTRYTMHWVRQAPGKGLEWIGYINPSRGYTNYNQKVKDRFTISRDNSKNTAFLQMDSLRPEDTGVYFCARYYDDHYCLDYWGQGTPVTVSSASTKGPSVFPLAPSSKSTSGGTAALGCLVKDYFPEPVTVSWNSGALTSGVHTFPAVLQSSGLYSLSSVVTVPSSSLGTQTYICNVNHKPSNTKVDKKVEPKSCDKTHTCPPCPAPELLGGPSVFLFPPKPKDTLMISRTPEVTCVVVDVSHEDPEVKFNWYVDGVEVHNAKTKPREEQYNSTYRVVSVLTVLHQDWLNGKEYKCKVSNKALPAPIEKTISKAKGQPREPQVYVYPPSRDELTKNQVSLTCLVKGFYPSDIAVEWESNGQPENNYKTTPPVLDSDGSFALVSKLTVDKSRWQQGNVFSCSVMHEALHNHYTQKSLSLSPGK
chain 2: not shown
chain 3: DIQMTQSPSSLSASVGDRVTITCSASSSVSYMNWYQQTPGKAPKRWIYDTSKLASGVPSRFSGSGSGTDYTFTISSLQPEDIATYYCQQWSSNPFTFGQGTKLQITRTVAAPSVFIFPPSDEQLKSGTASVVCLLNNFYPREAKVQWKVDNALQSGNSQESVTEQDSKDSTYSLSSTLTLSKADYEKHKVYACEVTHQGLSSPVTKSFNRGEC
On to B2, for which, in test [1], the “Bmax (OD450)” value came out at 6.44 OD450 and the Kd was 11.9 nM. In test [2], the “Bmax (OD450)” value came out at 2.51 OD450 and the Kd amounted to 1.58 nM.

B3: v1821, common light chain: aCD3-12F6_Fab chain A / aCD20-Rituximab_Fab chain B, Rituximab light chain (bispecific antibody, human IgG1, kappa)
chain 1: QVQLVQSGGGVVQPGRSLRLSCKASGYTFTSYTMHWVRQAPGKGLEWIGYINPSSGYTKYNQKFKDRFTISADKSKSTAFLQMDSLRPEDTGVYFCARWQDYDVYFDYWGQGTPVTVSSASTKGPSVFPLAPSSKSTSGGTAALGCLVKDYFPEPVTVSWNSGALTSGVHTFPAVLQSSGLYSLSSVVTVPSSSLGTQTYICNVNHKPSNTKVDKKVEPKSCDKTHTCPPCPAPELLGGPSVFLFPPKPKDTLMISRTPEVTCVVVDVSHEDPEVKFNWYVDGVEVHNAKTKPREEQYNSTYRVVSVLTVLHQDWLNGKEYKCKVSNKALPAPIEKTISKAKGQPREPQVYVYPPSRDELTKNQVSLTCLVKGFYPSDIAVEWESNGQPENNYKTTPPVLDSDGSFALVSKLTVDKSRWQQGNVFSCSVMHEALHNHYTQKSLSLSPGK
chain 2: not shown
chain 3: QIVLSQSPAILSASPGEKVTMTCRASSSVSYIHWFQQKPGSSPKPWIYATSNLASGVPVRFSGSGSGTSYSLTISRVEAEDAATYYCQQWTSNPPTFGGGTKLEIKRTVAAPSVFIFPPSDEQLKSGTASVVCLLNNFYPREAKVQWKVDNALQSGNSQESVTEQDSKDSTYSLSSTLTLSKADYEKHKVYACEVTHQGLSSPVTKSFNRGEC
notes: The single light chain is shared by both Fabs
Regarding B3, in test [1], the “Bmax (OD450)” value was 4.71 OD450 and the Kd is 122 nM. In test [2], the “Bmax (OD450)” value was 2.11 OD450 and binding was put at a Kd of 182 nM.

B4: v1823, common light chain: aCD3-12F6_Fab chain A / aCD20-Tositumumab_Fab chain B, Tositumumab light chain (bispecific antibody, human IgG1, kappa)
chain 1: B3 chain 1
chain 2: not shown
chain 3: B3 chain 3 with I32M, F35Y, T50P, V59A, T91S, S92F, G99A, I105L
notes: as for B3
In the case of B4, in test [2], the “Bmax (OD450)” value was found to be 0.88 OD450 and binding was characterised by a dissociation constant (Kd) of 68.8 nM.

B5: v5851, hybrid: aCD3-BiTEx_I2C_scFvFc (VHVL) chain A / aCD19-MOR208_Fab chain B and light chain (bispecific antibody)
chain 1: not shown
chain 2: not shown
chain 3: DIVMTQSPATLSLSPGERATLSCRSSKSLQNVNGNTYLYWFQQKPGQSPQLLIYRMSNLNSGVPDRFSGSGSGTEFTLTISSLEPEDFAVYYCMQHLEYPITFGAGTKLEIKRTVAAPSVFIFPPSDEQLKSGTASVVCLLNNFYPREAKVQWKVDNALQSGNSQESVTEQDSKDSTYSLSSTLTLSKADYEKHKVYACEVTHQGLSSPVTKSFNRGEC
B5: in test [3], the “Bmax (OD450)” value turned out to be 3.88 OD450 and the Kd turned out to be 1.38 nM.

B6: v1813, common light chain: aCD3-foralumab_Fab chain A / aCD20-Ofatumumab_Fab chain B, Ofatumumab light chain (bispecific antibody, human IgG1, kappa)
chain 1: not shown
chain 2: not shown
chain 3: not shown
notes: as for B3
B6: in test [1], the “Bmax (OD450)” value was determined as 6.4 OD450 and binding was put at a Kd of 4.04 nM. In addition, in test [2], the “Bmax (OD450)” value stood at 2.54 OD450 and the affinity, expressed as Kd, was 691 nM.

B7: v4542, cyno/human cross-reactive anti-CD3 BiTE 12C (VH-VL) scFv / anti-CD19 MOR208 (VH-VL) scFv heterodimeric knock-out Fc (bispecific antibody)
chain 1: not shown
chain 2: EVQLVESGGGLVKPGGSLKLSCAASGYTFTSYVMHWVRQAPGKGLEWIGYINPYNDGTKYNEKFQGRVTISSDKSISTAYMELSSLRSEDTAMYYCARGTYYYGTRVFDYWGQGTLVTVSSGGGGSGGGGSGGGGSDIVMTQSPATLSLSPGERATLSCRSSKSLQNVNGNTYLYWFQQKPGQSPQLLIYRMSNLNSGVPDRFSGSGSGTEFTLTISSLEPEDFAVYYCMQHLEYPITFGAGTKLEIKAAEPKSSDKTHTCPPCPAPEAAGGPSVFLFPPKPKDTLMISRTPEVTCVVVSVSHEDPEVKFNWYVDGVEVHNAKTKPREEQYNSTYRVVSVLTVLHQDWLNGKEYKCKVSNKALPAPIEKTISKAKGQPREPQVYVLPPSRDELTKNQVSLLCLVKGFYPSDIAVEWESNGQPENNYLTWPPVLDSDGSFFLYSKLTVDKSRWQQGNVFSCSVMHEALHNHYTQKSLSLSPGK
For the molecule B7, in test [3], the “Bmax (OD450)” value worked out at 2.96 OD450 and the Kd is 0.7 nM.

B8: v5852, hybrid: aCD3-Teplizumab-hOKT3_Fab chain A and light chain / aCD19-MOR208_scFvFc (VHVL) chain B (bispecific antibody, human IgG1, kappa, L234A L235A)
chain 1: B2 chain 1
chain 2: B7 chain 2
chain 3: B2 chain 3
Take B8: in test [2], the “Bmax (OD450)” value is 2.21 OD450 and the Kd was 25.2 nM.

For orientation: Kd means the constant that tells how readily two partners part at equilibrium. A higher Kd goes with weaker binding.

The values above are taken from patent US20240343802A1 (Zymeworks, published 2024).
